# Measurements reported in the RNAGym collection of RNA variant scans (doi:10.1073/pnas.2313332121).
# Fewer inactive variants are shown than the library holds.
# B1: TPR 5TU (parent)
# chain: GGAUCUUCUCGAUCUAACAAAAAAGACAAAUCUGCCACAAAGCUUGAGAGCAUCUUCGGAUGCAGAGGCGGCAGCCUUCGGUGGCGCGAUAGCGCCAACGUUCUCAACUAUGACACGCAAAACGCGUGCUCCGUUGAAUGGAGUUUAUCAUG
# Variants of: B1
# Experiment: polymerase ribozyme fitness, log enrichment relative to wild type (log ratio); higher = more active; in vitro selection for triplet polymerase activity
# Summary of the method: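 PCR was used to build mutant libraries for each subunit of a heterodimeric triplet polymerase ribozyme, which were then transcribed. A single in vitro selection round, in triplicate, used a frozen incubation at −7 °C and recovered extended constructs by gel excision, streptavidin beads and RT-PCR. Fitness is the logarithm of genotype enrichment relative to wild-type enrichment, averaged over replicates with inverse-variance weights. The logarithm is base 2, and after Illumina sequencing only genotypes with ≥10 input reads and ≥1 read per output were kept.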
row,Variant,polymerase ribozyme fitness (log ratio)
1,GGAUCUUCUCGAUCUAACAUAAAAGACAAAUCUGCCACAAAGCUUGAGAGCAUCUUCGGAUGCAGAGGCGGCAGCCUUCGGUGGCGCGAUAGCGCGAACGUUCUCAACUAUGACACGCAAAACGCGUGCUCCGUUGAAUGGAGUUUAUCAUG [A20U C96G],-0.585
2,GGAUCUUCUCGAUCUAACAACAGAGACAAAUCUGCCACAAAGCUUGAGAGCAUCUUCGGAUGCAGAGGCGGCAGCCUUCGGUGGGGCGAUAGCGCCAACGUUCUCAACUAUGACACGCAAAACGCGUGCUCCGUUGAAUGCAGUUUAUCAUG [A21C A23G C85G G141C],-3.89
3,GGAUCUUCUCGAUCUAACAUAAAAGACAAAUCUGCCACAAAGCUUGAGAGCAUCAUCGGAUGCAGAGGCGGCAGCCUUCGGUGGCGCGAUAGCGCCAACGUUCUCAACUAUGACACGCAAAACGCGUGCUCCGUUGAAUGGAGUUUAUCAUG [A20U U55A],-2.07
4,GGAUCUUCUCGAUCUAACAACAAAGCUAAAUCUGCCACAAAGCGUGAGAGCGUCUUCCGAUGCAGAGGCGGCAGCCUUCGGUGGCGCGAAAACGCCAACUUUCUCAACUAUGACACGCAAAACGCGUGCUCCGUUGAAUGGAGUUUAUCAUG [A21C A26C C27U U44G A52G G58C U90A G92A G100U],≤ -4.2
5,GGAUCUUCUCGAUCUAACAUAAAAGACAAAUCUGCCACAAAGCUUGAGAGCAUCUUCGGAUGCAGAGGCGGCAGCCUUCGGUGGCGCGAUAGCGCCAACGUUCUCAACUAUGUCACGCAAAACGCGUGCUCCGUUGAAUGGAGUUUAUCAUG [A20U A113U],-3.74
6,GGAUCUUCUCGAUCUAACAUAAAAGACAAAUCUGCCACAAAGCUUGAGAGCAUCUUCGGAUCCAGAGGCGGCAGCCUUCGGUGGCGCGAUAGCACCAACGUUCUCAACUAUGACACGCAAAACGCGUGCUCCGUUGAAUGGAGUUUAUCAUG [A20U G62C G94A],-3.04
7,GGAUCUUCUCGAUCUAACAUAAAAGACAAAUCUGCCACAAAGCUUGAGAGCAUCUUCGGAUGCACAGGCGGCAGCCUUCGGUGGUGCGAUAGCGCCAACGUUCUCUACUAUGACACGCAAAACGCGUGCUCCGUUGAAUGGAGUUUAUCAUG [A20U G65C C85U A106U],≤ -4.2
8,GGAUCUUCUCGAUCUAACAACAAAGCCAAAUCUGCCACAAAGCUUGAGAGCAUCUUCGGAUGCAGAGGCGGCAGCCUUCGGUGGUGCGCUAGCGCCAACGUUCUCAACUAUGACACGCAAAACGCGUGCUCCGUUAAAUGAAGUUUAUCAUG [A21C A26C C85U A89C G136A G141A],-4.04
9,GGAUCUUCUCGAUCUAACAUAAAAGACAAAUAUGCCACAAAGCUUGAGAGCAUCUUCGGAUGCAGAGGCGGCAGCCUUCGGUGGCGCGAUAGCGCCAAAGUUCUCAACUAUGACGCGCAUAACGCGUGCUCCGUUGAAUGGAGUUUAUCAUG [A20U C32A C99A A115G A120U],-4.05
10,GGAUCUUCUCGAUCUAACAUAAAAGACAAAUCUGCCACAAAGCUUGAGAGCAUAUUCGGAUGCAGAGGCGGCAGCCUUCGGUGGCGCGAUAUCGCCAACGUUCUCAACUAUGACACGCAAAACGCGUGCUCCGUUGAAUGGAGUUUAUCAUG [A20U C54A G92U],-3.48
11,GGAUCUUCUCGAUCUAACAUAAAAGACAAAUCUGCCACAAAGCUUGAGAGCAUCUUCGGAUGCAGAGGCGGCAGCCUUCGAUGGCGCGGUAGUGCCAACGUUCUCAACUAUGACACGCAAAACGCGUGUUCCGUUGAAUGGAGUUUAUCAUG [A20U G81A A89G C93U C129U],-3.56
12,GGAUCUUCUCGAUCUAACAUAAAAGACAAAUCUGCCACAAAGCUUGAGAGCAUCUUCGGAUGCAGAGGCGGCAGCCUUCGGUGGCGCGAUAGCGCCAACGUUCUCAACUAUGACACGCAAAACGCGUGCUCCGUUGAAUGGAGUUUAUCGUG [A20U A150G],-1.81
13,GGAUCUUCUCGAUCUAACAUAAAAGACAAAUCUGCCACAAAGCUUGAGAGCAUCUUCGGAUGCAGAGGCGGCAGCCUUCGGUGGCGGGAUUGCGCCAACGUUCUCAACUAUGACACGCAAAACGCGUGCUCCGUUGAAUGGAGUUUAUCAUG [A20U C87G A91U],≤ -4.2
14,GGAUCUUCUCGAUCUAACAUAAAAGACAAAUCUGCCACAAAGCUAGAGAGCAUCUUCGGAUGCAGAGGCGGCAGCCUUCGGUGGCGCGAUAGCGCCAACGUUCUCAACUAUGACACGCAAAACACGUGCUCCGUUGAAUGGAGUUUAUCAUG [A20U U45A G124A],-3.98
15,GGAUCUUCUCGAUCUAACAUAAAAGACAAAUCUGCCACAAAGCUUGAGAGCAUAUACGGAUGCAGAGGCGGCAGCCUUCGGUGCCCCGAUAGCGCUAACGUUCUCAACUAUGACACCCAAAUCGCGUGCUCCGUUGAAUGGAGAUUAUCGUG [A20U C54A U56A G84C G86C C96U G117C A122U U144A A150G],≤ -4.2
16,GGAUCUUCUCGAUCUAACAUAAAAGACAAAUCUGCCACAAAGCUUGAGAGCAUCUUCGAAUGCAGAGGCGGCAGCCUUCGGUGGCGCAAUAGCGGCAACGUUCUCAACUAUGACACGCAAAACGCGUGCUCCGUUGAAUGGAGUUUAUCAAG [A20U G59A G88A C95G U151A],≤ -4.2
17,GGAUCUUCUCGAUCUAACAUAAAAGACAAAUCCGCCACAAAGCUUGAGAGCAUCUUCGGAUGCAGAGGCGACAGCCUUCGGUGGCGCGAUAGCGCCAACGUUCACGGCUAUGACACGCAAAACGCGUGCUCCGUUGCAUGGAGUUUAUCAUG [A20U U33C G71A U104A A106G A107G A137C],≤ -4.2
18,GGAUCUUCUCGAUCUAACAUAAAAGACAAAUCUGCCACAAAGCUUGAGAGCAUAUUCGGAUGCAGUGGCGGCAGCCCUCGGUGGCGCGAUAGCGCCAACGUUCUCAACUAUGACAGGCAAAACGAGUGCUCCGUUGAAUGGAGUUUACCAUG [A20U C54A A66U U77C C116G C125A U148C],≤ -4.2
19,GGAUCUUCUCGAUCUAACAUAAAAGACAAAUCUGCCACAAAGCUUGAGAGCAUCUUCGGAUGCAGAGGCGGCAGCCUUCGGUGGGGCGAUAGCGCCAACGUUCUCAACUAUGACACGCAAAACGCGUGCUCCGUUGAAUGGAGUUUAUCAUG [A20U C85G],-3.35
